Assay results as given in patent US20240279318A1 (NANJING LEGEND BIOTECH, published 2024).
Substitutions are numbered along the chain they refer to.

B1: LD97E (scFv)
scFv: QSALTQPRSVSGSPGQSVTISCAGTSSDVGSENYVSWYQQHPGKAPKLMIYQVNKRASGVPDRFSGSKSGNTASLTISGLQAEDEADYYCASYRSSEHNIVFGGGTKLTVLGGGGSGGGGSGGGGSEVQLVESGGGLVQPGGSLRLSCAASGFTFSSYAMSWVRQAPGKGLEWVSTINSGTGSPYYADSVKGRFTISRDNSKNTLYLQMNSLRAEDTAVYYCAKNFFDGSWFLGPPAMDYWGQGTLVTVSSHHHHHH
notes: AS170036 VL1VH1 scFv mutein
B2: LD97V (scFv)
scFv: B1 scFv with E97V
notes: AS170036 VL1VH1 scFv mutein
B3: LE32N (scFv)
scFv: B1 scFv with E32N, E97D
notes: AS170036 VL1VH1 scFv mutein
B4: LD97Q (scFv)
scFv: B1 scFv with E97Q
notes: AS170036 VL1VH1 scFv mutein
B5: LH98D (scFv)
scFv: B1 scFv with E97D, H98D
notes: AS170036 VL1VH1 scFv mutein
B6: LY34S (scFv)
scFv: B1 scFv with Y34S, E97D
notes: AS170036 VL1VH1 scFv mutein
B7: LD97Y (scFv)
scFv: B1 scFv with E97Y
notes: AS170036 VL1VH1 scFv mutein
B8: LY34D (scFv)
scFv: B1 scFv with Y34D, E97D
notes: AS170036 VL1VH1 scFv mutein
B9: LD97I (scFv)
scFv: B1 scFv with E97I
notes: AS170036 VL1VH1 scFv mutein
B10: LE32M (scFv)
scFv: B1 scFv with E32M, E97D
notes: AS170036 VL1VH1 scFv mutein
B11: LE32P (scFv)
scFv: B1 scFv with E32P, E97D
notes: AS170036 VL1VH1 scFv mutein
B12: LY34L (scFv)
scFv: B1 scFv with Y34L, E97D
notes: AS170036 VL1VH1 scFv mutein
B13: LE32H (scFv)
scFv: B1 scFv with E32H, E97D
notes: AS170036 VL1VH1 scFv mutein
B14: LY93H (scFv)
scFv: B1 scFv with Y93H, E97D
notes: AS170036 VL1VH1 scFv mutein
B15: LH98K (scFv)
scFv: B1 scFv with E97D, H98K
notes: AS170036 VL1VH1 scFv mutein
B16: LE32L (scFv)
scFv: B1 scFv with E32L, E97D
notes: AS170036 VL1VH1 scFv mutein
B17: LY34A (scFv)
scFv: B1 scFv with Y34A, E97D
notes: AS170036 VL1VH1 scFv mutein
B18: LY93N (scFv)
scFv: B1 scFv with Y93N, E97D
notes: AS170036 VL1VH1 scFv mutein
B19: LY34V (scFv)
scFv: B1 scFv with Y34V, E97D
notes: AS170036 VL1VH1 scFv mutein
B20: LY34M (scFv)
scFv: B1 scFv with Y34M, E97D
notes: AS170036 VL1VH1 scFv mutein
B21: LD97L (scFv)
scFv: B1 scFv with E97L
notes: AS170036 VL1VH1 scFv mutein
B22: LE32T (scFv)
scFv: B1 scFv with E32T, E97D
notes: AS170036 VL1VH1 scFv mutein
B23: LY34F (scFv)
scFv: B1 scFv with Y34F, E97D
notes: AS170036 VL1VH1 scFv mutein
B24: LY34P (scFv)
scFv: B1 scFv with Y34P, E97D
notes: AS170036 VL1VH1 scFv mutein
B25: LE32V (scFv)
scFv: B1 scFv with E32V, E97D
notes: AS170036 VL1VH1 scFv mutein
B26: LY93T (scFv)
scFv: B1 scFv with Y93T, E97D
notes: AS170036 VL1VH1 scFv mutein
B27: LY34I (scFv)
scFv: B1 scFv with Y34I, E97D
notes: AS170036 VL1VH1 scFv mutein
B28: LD97W (scFv)
scFv: B1 scFv with E97W
notes: AS170036 VL1VH1 scFv mutein
B29: LY34E (scFv)
scFv: B1 scFv with Y34E, E97D
notes: AS170036 VL1VH1 scFv mutein
B30: LE32I (scFv)
scFv: B1 scFv with E32I, E97D
notes: AS170036 VL1VH1 scFv mutein
B31: LY93D (scFv)
scFv: B1 scFv with Y93D, E97D
notes: AS170036 VL1VH1 scFv mutein
B32: LE32Q (scFv)
scFv: B1 scFv with E32Q, E97D
notes: AS170036 VL1VH1 scFv mutein
B33: LY34T (scFv)
scFv: B1 scFv with Y34T, E97D
notes: AS170036 VL1VH1 scFv mutein
B34: LY34G (scFv)
scFv: B1 scFv with Y34G, E97D
notes: AS170036 VL1VH1 scFv mutein
B35: LE32A (scFv)
scFv: B1 scFv with E32A, E97D
notes: AS170036 VL1VH1 scFv mutein
B36: LD97M (scFv)
scFv: B1 scFv with E97M
notes: AS170036 VL1VH1 scFv mutein
B37: LD97P (scFv)
scFv: B1 scFv with E97P
notes: AS170036 VL1VH1 scFv mutein
B38: AS170036 VL1VH1 HS57F (scFv)
scFv: B1 scFv with E97D, S183F
B39: AS170036 VL1VH1 HS57N (scFv)
scFv: B1 scFv with E97D, S183N
B40: AS170036 VL1VH1 HS57Y (scFv)
scFv: B1 scFv with E97D, S183Y
B41: AS170036 VL1VH1 HS57T (scFv)
scFv: B1 scFv with E97D, S183T
B42: AS170036 VL1VH1 HW105M (scFv)
scFv: B1 scFv with E97D, W231M
B43: AS170036 VL1VH1 HS57W (scFv)
scFv: B1 scFv with E97D, S183W
B44: AS170036 VL1VH1 HW105F (scFv)
scFv: B1 scFv with E97D, W231F
B45: HF101Y (scFv)
scFv: B1 scFv with E97D, F227Y
notes: AS170036 VL1VH1 scFv mutein
B46: HG56A (scFv)
scFv: B1 scFv with E97D, G182A
notes: AS170036 VL1VH1 scFv mutein
B47: HF101W (scFv)
scFv: B1 scFv with E97D, F227W
notes: AS170036 VL1VH1 scFv mutein
B48: HD102E (scFv)
scFv: B1 scFv with E97D, D228E
notes: AS170036 VL1VH1 scFv mutein
B49: HG56D (scFv)
scFv: B1 scFv with E97D, G182D
notes: AS170036 VL1VH1 scFv mutein

These binders were tested against T1, AFP158/HLA-A*02:01 complex (human) (assay: SPR, scFv captured, pMHC in flow;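 further: complex injected at several concentrations over crude scFv, association then running-buffer dissociation, KD estimated from kinetic on- and off-rate constants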).
T1 construct: flowed over the chip in SPR; also called AFP158 pro
Method: (§1) The experiment was carried out as follows. The crude scFv protein were captured onto the sensorchip. Different concentrations (320, 160, 40 nM) of AFP158/HLA-A*02:01 complex flowed over the sensorchip surface, and were allowed to bind the antibody fragment for 100 s followed by injection of the running buffer to allow dissociation of the complex. On-rate (kd) and off-rate (kd) were calculated based on association and dissociation curve, and were used to estimate the equilibrium dissociation constant (KD).

Row | Binder | Kd [nM]
1 | B1 | 690
2 | B2 | 660
3 | B3 | 690
4 | B4 | 580
5 | B5 | 1100
6 | B6 | 1000
7 | B7 | 570
8 | B8 | 740
9 | B9 | 650
10 | B10 | 590
11 | B11 | 1400
12 | B12 | 730
13 | B13 | 830
14 | B14 | 620
15 | B15 | 1100
16 | B16 | 980
17 | B17 | 1700
18 | B18 | 1400
19 | B19 | 740

Row | Binder | Kd [nM]
20 | B20 | 1100
21 | B21 | 640
22 | B22 | 770
23 | B23 | 780
24 | B24 | 1400
25 | B25 | 930
26 | B26 | 840
27 | B27 | 1800
28 | B28 | 570
29 | B29 | 1400
30 | B30 | 860
31 | B31 | 1200
32 | B32 | 570
33 | B33 | 2200
34 | B34 | 1700
35 | B35 | 700
36 | B36 | 590
37 | B37 | 790

The binders below were run against T1, AFP158/HLA-A*02:01 complex (assay: SPR, KD ratio to AS170036 VL1VH1;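 further: crude scFv captured on a sensor chip, peptide–HLA complex passed over at several concentrations, association then buffer dissociation, KD derived from on- and off-rates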).
Method: as §1

Row | Binder | Affinity increase [fold]
38 | B1 | 0.4
39 | B2 | 0.4
40 | B3 | 0.4
41 | B4 | 0.4
42 | B5 | 0.2
43 | B6 | 0.2
44 | B7 | 0.4
45 | B8 | 0.3
46 | B9 | 0.4
47 | B10 | 0.4
48 | B11 | 0.2
49 | B12 | 0.3
50 | B13 | 0.3
51 | B14 | 0.4
52 | B15 | 0.2
53 | B16 | 0.3
54 | B17 | 0.1
55 | B18 | 0.2
56 | B19 | 0.3

Row | Binder | Affinity increase [fold]
57 | B20 | 0.2
58 | B21 | 0.4
59 | B22 | 0.3
60 | B23 | 0.3
61 | B24 | 0.2
62 | B25 | 0.3
63 | B26 | 0.3
64 | B27 | 0.1
65 | B28 | 0.4
66 | B29 | 0.2
67 | B30 | 0.3
68 | B31 | 0.2
69 | B32 | 0.4
70 | B33 | 0.1
71 | B34 | 0.1
72 | B35 | 0.3
73 | B36 | 0.4
74 | B37 | 0.3

The binders below were run against T2, AFP158/HLA-A*02:01 complex (human) (assay: SPR; vs AS170036 VL1VH1;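 further: crude scFv captured on sensor chip, peptide–HLA complex flowed over at several concentrations, KD estimated from association and dissociation kinetic rates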).
T2 construct: biotinylated on the BSP by BirA for ELISA and panning; also called biotinylated AFP158/HLA-A*02:01 complex; Bio-AFP158

Row | Binder | Affinity increase [fold]
75 | B38 | 1.4
76 | B39 | 1.5
77 | B40 | 1.2
78 | B41 | 1.1
79 | B42 | 0.2
80 | B43 | 0.6
81 | B44 | 0.2

Each binder was assayed against T2, AFP158/HLA-A*02:01 complex (assay: SPR, crude scFv captured;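 further: Peptide–MHC complex flowed at several concentrations over sensorchip-captured scFv, Kd derived from on- and off-rates obtained from the association and dissociation curves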).

Row | Binder | Kd [nM]
82 | B38 | 180
83 | B39 | 170
84 | B40 | 200
85 | B41 | 220
86 | B42 | 1200
87 | B43 | 380
88 | B44 | 1400

Biological target: T1, AFP158/HLA-A*02:01 complex
Assay: SPR, scFv captured, pMHC in flow
Remark: another data set of the same source
Method: as §1

Row | Binder | Kd [nM]
89 | B45 | 210
90 | B46 | 160
91 | B47 | 300
92 | B48 | 190
93 | B49 | 230

Biological target: T1, AFP158/HLA-A*02:01 complex
Assay: SPR, KD ratio to AS170036 VL1VH1
Remark: another data set of the same source
Method: as §1

Row | Binder | Affinity increase [fold]
94 | B45 | 1.1
95 | B46 | 1.4
96 | B47 | 0.8
97 | B48 | 1.2
98 | B49 | 1
